Measured values reported in PMC6658013.

How the values were obtained:
[1] = biological target: prefusion-stabilized RSV F variant DS-Cav1 from strain A2, tags removed, Endo H-treated (form used for crystallization) (human respiratory syncytial virus subtype A (strain A2)) (UniProt P03420); test: crystal structure
[2] = biological target: prefusion-stabilized RSV F (DS-Cav1), subtype B (strain B9320), with C-terminal His tag and Strep-ta (human respiratory syncytial virus subtype B (strain B9320)); test: SPR
[3] = biological target: subtype A DS-Cav1 with a K209Q substitution (form used for SPR) (human respiratory syncytial virus subtype A (strain A2)) (UniProt P03420); test: SPR
[4] = biological target: prefusion-stabilized RSV F (DS-Cav1), subtype A (strain A2), with C-terminal His tag and Strep-tag I (human respiratory syncytial virus subtype A (strain A2)) (UniProt P03420); test: SPR

Sequence of AM22 antigen-binding fragment (Fab) (VH): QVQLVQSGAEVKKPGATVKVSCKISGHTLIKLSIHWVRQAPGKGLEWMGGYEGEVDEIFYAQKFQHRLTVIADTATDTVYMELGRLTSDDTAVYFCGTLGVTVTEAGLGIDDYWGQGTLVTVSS
Sequence of AM22 antigen-binding fragment (Fab) (VL): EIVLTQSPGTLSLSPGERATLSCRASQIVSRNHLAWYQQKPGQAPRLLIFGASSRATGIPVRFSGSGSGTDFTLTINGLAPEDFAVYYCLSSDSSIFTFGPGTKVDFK

Substance | stoichiometry N (Fabs per F trimer) [1] | Kd [2] [pM] | Kd [3] [pM] | Kd [4] [pM]
AM22 antigen-binding fragment (Fab) | 3 | 6100 | 6700 | 120
D25 Fab | – | 330 | – | < 64
